Reference: the nanobody polyreactivity screen of Harvey et al. (2022)

Test: yeast display, Sf9 membrane polyspecificity reagent, FACS + sequencing; frameworks hold sequencing errors
Outline: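 Synthetic nanobody libraries on Saccharomyces cerevisiae BJ5465 were galactose-induced for 36–48 hours, stained 1 hour at 4 °C with 10% biotinylated, detergent-solubilized Sf9 membrane reagent and enriched on streptavidin microbeads. FACS then separated cells into low and high (top ~1%) gates by anti-HA (expression) and streptavidin (reagent binding) fluorescence. Genes were colony-PCR amplified, MiSeq 2 × 250 sequenced and CDR-length filtered. A clone's polyreactivity label is that of its gate of origin.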

| Sequence | polyreactivity (PSR sort gate) |
| --- | --- |
| QVQLVESGGGLVQAGGSLRLSCAASGRTFNSYAMGWYRQAPGKEWELVASISSGGSTYYADSVKGRFTLSRDNAKNTDYLQMNSLKPEDTAVYYCAAKSVAYYSYFRRDYWGQGTQVTVSS | low polyreactivity |
| QVQLVESGGGLVQAGGSLRLSCAASGRTFNTYAMGWYSQAPGKERELVAAISRRGGSTYYADSVKGRFTISRDNAKNTDYLQMNSLKPEDTAVYYCAAGNSVGLGWGQGTQVTVSS | high polyreactivity |
| QVQLVESGGGLVQAGGSLRLSCAASGRTFNWNALGWYRQAPGKERELVATISRRGGSTYYADSVKGRFTISRDNAKNTVYLQMNSLKREDTAVYYCITAGRYGYDYWGQGTQVTVSS | high polyreactivity |
| QVQLVESGGGLVQAGGSLRLSCAASGRTFNWYAMGWYRQAPGKERELVAAIRVNGGITYYADSVKGRFTISRDNAMNTVYLQMNSLKPEDTAVYYCAVYSRQGLGYWGQGTQVTVSS | high polyreactivity |
| QVQLVESGGGLVQAGGSLRLSCAASGRTFNYYAMGSYRQAPGKERELVAAISWSGTPTYYADSVKGRFTISRDNAKNTVYLQMNSLKPEDTAVYYCAAHSGSTYKYWGQGTQVTVSS | low polyreactivity |
| QVQLVESGGGLVQAGGSLRLSCAASGRTFNYYAMGWYRQAPGKERELVAAISASGGRTYYADSVKGRFTISRDNAKNTVYLQMNSLKPAETAVYYCAKVSSFDAQFDYWGQGTQVTVSS | high polyreactivity |
| QVQLVESGGGLVQAGGSLRLSCAASGRTFNYYAMGWYRQAPGKERELVAAISRSGGSTYYADSVKGRFTISRDNAKNTVYLQMNSLKPEDTAVYYCAVAWNVRGVGARQRYIYGYWGQGTQVTVSS | high polyreactivity |
| QVQLVESGGGLVQAGGSLRLSCAASGRTFNYYAMGWYRQAPGKERELVAAISWSGTPTYYADSVKGRFTISRDNAKNTVYLQMNSLKPEDTAVYYCAAGYNYTSYADLDYWGQGTQVTVSS | low polyreactivity |
| QVQLVESGGGLVQAGGSLRLSCAASGRTFNYYAMGWYRQAPGKERELVAAITSGSTTYYADSVKGRFTISRDNAKNTVYLQMNSLKPEDTAVYYCATAWRPADNSWGQGTQVTVSS | low polyreactivity |
| QVQLVESGGGLVQAGGSLRLSCAASGRTFNYYARGWYRQAPGKERELVAAISKRGGSTYYADSVKGRFTISRDNAKNTVYLQMNSLKPEDTAVYYCNAAQSVELGYDYWGKGTQVTVSS | high polyreactivity |
| QVQLVESGGGLVQAGGSLRLSCAASGRTFPAYAMGWYRQAPGKERELVASIDLSGGSTSYADSVKGRFTISRDNAKNTVYLQMNSLKPEDTAVYYCAKKGRWSSASSGYYYWGQGTQVTVSS | low polyreactivity |
| QVQLVESGGGLVQAGGSLRLSCAASGRTFPCYAMGWYRQAPGKEREFVAAITASGDSTYYADSVKGRFTISRDNAKNTVYLQMNSLKPEDTAVYYCAADLPVWYVTRYDYWGQGTQVTVSS | low polyreactivity |
| QVQLVESGGGLVQAGGSLRLSCAASGRTFPEYDMGWYIQAPGKERELVAAISTSGGSTYYADSVKGRFTISRDNAKNTVYLQMNSLKPEDTAVYYCAAQVTSIWGFTYAYRYDYWGQGTQVTVSS | low polyreactivity |
| QVQLVESGGGLVQAGGSLRLSCAASGRTFPGNAMGWYRQAPGKERELVAAISYRGGSTYYADSVKGRFTISRDNAKNTVYLQMNSLKPEDTAVYYCAAASERTGYYYWGQGTQVTVSS | high polyreactivity |
| QVQLVESGGGLVQAGGSLRLSCAASGRTFPGNAMGWYRQAPGKERELVAGISYRGGSTYYADSVKGRFTISRDYGKNTVYLQMNSLKPEDTAVYYCARDYSRHKGDYWGQGTQVNVSS | low polyreactivity |
| QVQLVESGGGLVQAGGSLRLSCAASGRTFPGYAMGWYRQAPGKERELVASITSRGGITNYADSVKGRFTISRDIAKNTVYLQMLCLKPEDTSVYYCAAVSFWTMDYWGQGTQVTVSS | low polyreactivity |

| Sequence | polyreactivity (PSR sort gate) |
| --- | --- |
| QVQLVESGGGLVQAGGSLRLSCAASGRTFPGYAMGWYRQAPGKERELVATITFSDGSTYYADSVKGRFTISRDNAKNSVYLQMNSLKQEDTAVYYCNARRSYFLRYGVNYWGQGNQVTVSS | low polyreactivity |
| QVQLVESGGGLVQAGGSLRLSCAASGRTFPGYAMGWYRQAPGKETELVATISSADSTNYADSVKGRFTISRDNAKNTVYLQMNSLKPEDTAVYYCAERYGRNGAAAQYTGWYRYDYWGQGTQVTVSS | low polyreactivity |
| QVQLVESGGGLVQAGGSLRLSCAASGRTFPHYAMGWYRQAPGKERELVAAISSSGGSTYYADSVKGRFTISRDNAKNTVYLQMNSLKPEDNAVYYCAARYVDDGWKYDYWGQGTQVTVSS | low polyreactivity |
| QVQLVESGGGLVQAGGSLRLSCAASGRTFPINAMGWYRQAPGKERELVASIRWTDGTTYYADSVKGRFTISRDNAKNTVYLQMNSLKPEDTAVYYCAADAEGSASKYDYWGQGTQVTVSS | low polyreactivity |
| QVQLVESGGGLVQAGGSLRLSCAASGRTFPLNAMGWYRQAPGKERELVASITKSTGNTRYADSVKGRFTISRDNAKNTVYLQMNSLKPEDTAVYYCAARSYRDRYYWGQGTQVNVSS | high polyreactivity |
| QVQLVESGGGLVQAGGSLRLSCAASGRTFPLYAMGWYRQAPGKERELVAAISLSGGRTYYADSVKGRFTISRDNAKNTVYLQMNSLKPEDTAVYYCAARGTLSAQVGIRRYDYWGQGTQVTVSS | low polyreactivity |
| QVQLVESGGGLVQAGGSLRLSCAASGRTFPRNAMGWSRQAPGKERELVAAISSTGDSTYYADSVKGRFTISRDNAKNTVYLQMNSLKPEDTAVYYCHYPYDYWGKGTQVTVSS | low polyreactivity |
| QVQLVESGGGLVQAGGSLRLSCAASGRTFPRNGMGWYRQAAGKERELVAAICWSGGRTYYADSVKGRFTISRDNAKNTVYLQMNSLKPEDTAVYYCNALYFRKGGYWGQGTQVTVSS | high polyreactivity |
| QVQLVESGGGLVQAGGSLRLSCAASGRTFPRNGMGWYRQAPGTERELVAAISWSGGRTYYADSVKGRFTISRDNAKNTVYLQMNSLKPEDTAVYYCNALYFRKGGYWGQGTQVTVSS | high polyreactivity |
| QVQLVESGGGLVQAGGSLRLSCAASGRTFPRYAMGWYRPAAGKVWELVAAISVRAGITYYADSVKGRFTISRDNAKNTVYFQMNSLKPEDTAVYYCAKDHWTTSYDEGDYWGQGTQETVSS | low polyreactivity |
| QVQLVESGGGLVQAGGSLRLSCAASGRTFPRYAMGWYRQAPGKERELVAGISWSGGRTYYADSVKGRFTISRDNAKNTVYLQMNSLKPEDTAVYYCAVVSKNLSYRTTFYYWGQGTQVTVSS | high polyreactivity |
| QVQLVESGGGLVQAGGSLRLSCAASGRTFPRYTMGWYRQAPGKERELVAASATGGSTYYADSVKGRFTISRDNAKNTVYLQMNSLKPEDTAVYYCAAYKLYPYYSTEYDYWGQGTQVTVSS | high polyreactivity |
| QVQLVESGGGLVQAGGSLRLSCAASGRTFPRYVMGWNRQAPGKERELVAAISSSGGSTYYADSVKGRFTISRDNAKNTVYLQMNSLKPEDTAVYYCAAPSGGSKRYYYWGQGTKVTVSS | high polyreactivity |
| QVQLVESGGGLVQAGGSLRLSCAASGRTFPSYAMGWYRQAPGKERELVAAITRGGSTNYADSVKGRFTISRDNAKNTVYLQMNSLKPEDTAVYYCAAARWRWQLARDDYWGQGTQVTVSS | high polyreactivity |
| QVQLVESGGGLVQAGGSLRLSCAASGRTFPSYAMGWYRQAPGKERELVAAITRGGSTNYADSVKGRFTISRDNAKNTVYLQMNSLKPEDTAVYYWAAARWRWQLARDDYWGQGTQVTVSS | high polyreactivity |
| QVQLVESGGGLVQAGGSLRLSCAASGRTFPSYAMGWYRQAPGTERELVAAITVSGGNTYYAHSVKGRFTISRDNAKNTVYLQMNSLKPEDTAVYYCNTPSYVSWYVHYYYWGQGTQVTVSS | low polyreactivity |
